Test results: patent publication US20030224458A1 (published 2003)
Ends that are not written are not given here.

B1: Peptide modulator of HGPRBMY23 LFASSDWSSFPVLVF (peptide)
peptide: LFASSDWSSFPVLVF
modifications: also: synthetic versions N-acetylated, C-terminal amide, also phage-displayed
notes: Synthetic versions are described as N-acetylated peptides made on Knorr amide resin (C-terminal amide)
B2: Peptide modulator of HGPRBMY23 SRVSGAKVWFLSNWS (peptide)
peptide: SRVSGAKVWFLSNWS
modifications: also: synthetic versions N-acetylated, C-terminal amide, also phage-displayed
notes: as for B1
B3: Peptide modulator of HGPRBMY23 FVGTFDWQSYPLLSF (peptide)
peptide: FVGTFDWQSYPLLSF
modifications: not fully specified (N-terminus, C-terminus)
notes: as for B1

Target: T1, HGPRBMY23 polypeptide (novel human G-protein coupled receptor) (human, UniProt Q96P68 1-337)
T1 construct: For phage panning it was expressed on CHO-K1 cells from the pcDNA3.1 Hygro-HGPRBMY23 construct; For immunohistochemistry it was the native protein in paraffin-embedded, formalin-fixed tissue sections; also called GPCR92
Test: phage display panning on CHO-K1 cells transfected with HGPRBMY23, after preadsorption on integrin and parental cells
Procedure: Typically, this corresponded to one P175 flask with near-confluent growth. A similar number of parental cells were grown for preadsorption. One day prior to panning, two or three 96-well Immulon plates were coated integrin. Plates were coated overnight at 4° C. in NaHCO₃, pH 9.5, with ˜50 ng of αVβ3 integrin (Chemicon; Cat. #CC1020) per well per library.
On the day of panning, growth medium was discarded and cells were washed with 10 ml PBS by allowing the buffer to flow over the cells. The PBS was removed and 10 ml Tris-EDTA detaching buffer (Gibco Cat. #13150-016; no trypsin) was added for 2 min. Plates were tapped and/or pipetted up and down to detach cells. This was done quickly to minimize the exposure of the cells to this reagent. Cells were pelleted by centrifugation at 3K, and then washed with 20 ml PBS. Cells were resuspended cells in PBS with 2% milk blocking agent plus protease inhibitor (EDTA-free; Roche Cat. #1 873 580). For each library, cell suspensions of ˜500 ul were used. Cells were blocked for 30-60 min with gentle rocking at room temperature. The integrin-coated wells were washed 3× in PBST, then blocked with 2% BSA in PBS for 30 min or more. To preadsorb against integrin, input phage was added to the integrin-coated wells, and incubated for 30 min or more.
At this stage, the blocked parental cells were divided into the required number of aliquots (500 ul aliquot/library). The phage supernatants were added from the integrin-preadsorption step. Preadsorption against the parental cells was carried out for 30 min or more with gentle rocking. The blocked transfected cells were divided into the required number of aliquots (500 ul aliquot per library). The transfected cells were pelleted, and the supernatant was discarded. The phage supernatants from the two preadsorption steps were added, and cells were incubated with gentle rocking for 2 h or more. Cells were washed 6-8×with PBST at 5 min intervals. Each wash was performed by gently pipetting the cells up and down, and cells were centrifuged at low speed. […]

T1 sequence (Q96P68 whole entry): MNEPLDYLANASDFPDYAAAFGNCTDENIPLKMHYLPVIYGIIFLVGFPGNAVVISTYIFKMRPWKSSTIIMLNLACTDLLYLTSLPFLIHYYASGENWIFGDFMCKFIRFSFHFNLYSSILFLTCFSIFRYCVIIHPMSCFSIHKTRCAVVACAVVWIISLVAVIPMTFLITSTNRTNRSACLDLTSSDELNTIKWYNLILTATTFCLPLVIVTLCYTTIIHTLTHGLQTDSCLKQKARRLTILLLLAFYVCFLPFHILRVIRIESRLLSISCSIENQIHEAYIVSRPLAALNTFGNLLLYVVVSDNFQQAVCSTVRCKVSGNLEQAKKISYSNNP

binding result | Binder
binds | B1
binds | B2
binds | B3
